From the RNAGym collection of RNA variant scans (doi:10.1073/pnas.2313332121) come the findings set out here.

To fix the notation:
B1: TPR 5TU (parent)
chain: GGAUCUUCUCGAUCUAACAAAAAAGACAAAUCUGCCACAAAGCUUGAGAGCAUCUUCGGAUGCAGAGGCGGCAGCCUUCGGUGGCGCGAUAGCGCCAACGUUCUCAACUAUGACACGCAAAACGCGUGCUCCGUUGAAUGGAGUUUAUCAUG

Variants at the floor of the assay were thinned out.

In the data set the parent is B1. The data set can be described thus: polymerase ribozyme fitness, log enrichment relative to wild type (log ratio); higher = more active; in vitro selection for triplet polymerase activity. The method, boiled down: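 Frozen incubation at −7 °C formed the core of a single, triplicate in vitro selection round applied to PCR-built, transcribed mutant libraries of each subunit of a heterodimeric triplet polymerase ribozyme. Extended constructs were gel-excised, captured with streptavidin beads and amplified by RT-PCR, and input and output libraries were Illumina-sequenced with a filter of ≥10 input reads and ≥1 read per output. Fitness is the logarithm of genotype enrichment relative to wild-type enrichment, with inverse-variance-weighted replicate averaging, and the logarithm is base 2.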
With GGAUCUUCUCGAUCUAACAAAAAAGACAAAUCUGCCACAAAGCUUGAGAGCAUCUUGGGAUGCAGAGGCGGCAGCCUUCGGUGGCGCGAUAGCGCCAACGUUCUCAACUAUGACACGCAAAACUCGUGCUCCGUUGAAUGGAGUUUAGCAUG [C57G G124U U148G], the “polymerase ribozyme fitness (log ratio)” value was ≤ -4.2.
GGAUCUUCUCGAUCUAACAAAAAAGACAAAUCUGCCACAAAGCUUGAGAGCAUCUUUGGAUGCAGAGGCGGCAGCCUUCGGUGGCGGUAUAGCGGCAACGUUCUCAACUAUGACAUGCAAAAAGCGUGCUCCGCUGAAUGGAGUUUAUCAUG [C57U C87G G88U C95G C116U C123A U134C]: the “polymerase ribozyme fitness (log ratio)” value is ≤ -4.2.
For GGAUCUUCUCGAUCUAACAAAAAAGACAAAUCUGCCACAAAGCUUGAGAGCAUCUUGGGAUGCAGAGGCGGCAGCCUUCGGUGGCGCUAUAGCACCAACGUUCUCAACUAUGACACGCAAAACGCGUGCUCCGUUGAAUGGAGUUUAUCAUG [C57G G88U G94A], the “polymerase ribozyme fitness (log ratio)” value is ≤ -4.2.
On to GGAUCUUCUCGAUCUAACAAAAAAGACAAAUCUGCCACAAAGCUUGAGAGCAUCUUUGGAUGCAGAGGCGGCAGUCUUCGGUGGCGCGAUAGCGCCAACGUUCUCAACUAUGACACGCAAAAGGCGUGCUCCGUUGAAUGGAGCUUAUCAUG [C57U C75U C123G U144C], for which the “polymerase ribozyme fitness (log ratio)” value was -0.394.
In the case of GGAUCUUCUCGAUCUAACAAAAAAGACAAAUCUGCCACAAAGCUUGAGAGCAUCUUUGGAUGCAGAGGCGGCAGCCUUCGGUGGUGCGAUAGCGCCAACGUACUCAACUAUGAAACGCAAAACGCGUGCUCCGUUGAAUGGAGUUUAUCAUG [C57U C85U U102A C114A], the “polymerase ribozyme fitness (log ratio)” value was -3.9.
For GGAUCUUCUCGAUCUAACAAAAAAGACAAAUCUGCCACAAAGCUUGAGAGCAUCUUUGGAUGCAGAGUCGGCAGCCUUCGGUGGCGCGAUAGCGCCAACGUUCUCAACUAUGACACGCAAAACGCGUGCUCCGUUGAAUGGAGUUUAUCAUG [C57U G68U], the “polymerase ribozyme fitness (log ratio)” value is -3.89.
With GGAUCUUCUCGAUCUAACAAAAAAGACAAAUCUGCCACAAAGCUUGAGAGCAUCUUUGGAUGCAGAGGCGGCAGCCUUCGGUGGCGCGAUAGCGCCAACGUUCUCAACUAUGACACGCAAAACGCGUGCUUCGUUGAAUGGAGUUUAUCAUG [C57U C131U], the “polymerase ribozyme fitness (log ratio)” value turned out to be 1.26.
On to GGAUCUUCUCGAUCUAACAAAAAAGACAAAUCUGCCACAAAGCUUGAGAGCAUCUUUGGAUGCAGAGGCGGCAGCCUUCGGUGGCGCGAUUGCGCCAACGUUCUCAACUAUGACACGCAAAACGCGUGCUCCGUUGAAUGGAGUUUAUCAUG [C57U A91U], for which the “polymerase ribozyme fitness (log ratio)” value is -3.95.
On to GGAUCUUCUCGAUCUAACAAAAAAGACAAAUCUGCCACAAAGCUUGAGAGCAUCUUGGGAUGCAGAGGCGGCAGCCUUCGGUGGCGCGAUAGCCCCAACGUUCUCAACUAUGAGACGAAAAACGCGUGCUCCGUUGAAUGGAGUUUAUCAUG [C57G G94C C114G C118A], for which the “polymerase ribozyme fitness (log ratio)” value is ≤ -4.2.
As to GGAUCUUCUCGAUCUAACAAAAAAGACAAAUCUGCCACAAAGCUUGAGAGCAUCUUUGCAUGCAGAGGCGGCAGCCUUCGGUGGCGCGAUAGAGCCAACGUUCUCAACUAUGACACGCAAAACGCGUGCUCCGUGGAAUGGAGUUUAUCAUG [C57U G59C C93A U135G], the “polymerase ribozyme fitness (log ratio)” value is ≤ -4.2.
Under GGAUCUUCUCGAUCUAACAAAAAAGACAAAUCUGCCACAAAGCUUGAGAGCAUCUUUGGAUGCAGAGGCGGCAGCCUUCGCUGGCGCGAUAGCGCCAACGUUCUCUACUAUGACACGCAAAACGCGUGCUCCGUUGAAUGGAGUUUAUCAUG [C57U G81C A106U] stands -1.74.
For the variant GGAUCUUCUCGAUCUAACAAAAAAGACAAAUCUGCCACAAAGCUUGAGAGCAUCUUUGGAUGCAGAGGCGGCAGCGUUCGGUGGCGCGAUAGCGCCAACGUUCUCAACUAUGACCCGCAAAACGCGUGCUCCGUUGAAUGGAGUUUAUCGUG [C57U C76G A115C A150G], the “polymerase ribozyme fitness (log ratio)” value is ≤ -4.2.
As for GGAUCUUCUCGAUCUAACAAAAAAGACAAAUCUGCCACAAAGCUUGAGAGCAUCUUUGGAUGCAGAGGCGGCAGCUUUCGGUGGCGCGAUAGCGCCAGCGUUCUCAACUAUGACACGCAAAACGCGUGCUCCGUUGAAUGGAGUUUAUCAUG [C57U C76U A98G], the “polymerase ribozyme fitness (log ratio)” value is -0.421.
GGAUCUUCUCGAUCUAACAAAAAAGACAAAUCUGCCACAAAGCUUGAGAGCAUCUUUGGAUGCAGAGGCGGCAGCCUUCGGUGGCGCGAUAGCGCUAACGUUUUCAACUAUGACACUCAAAACGCGUGCUCCGUUAAAUGUAGUUUAUCAUG [C57U C96U C103U G117U G136A G141U]: the “polymerase ribozyme fitness (log ratio)” value is ≤ -4.2.
GGAUCUUCUCGAUCUAACAAAAAAGACAAAUCUGCCACAAAGCUUGAGAGCAUCUUUGGAUGCAGAGGCGGCAGCCUUCAGUGGCGCGAUAGCGCCAACGUUCUCAACUAUGACACGCAAAACGCGUGCUCCGUUGAAUGGAGUUUAUCAUG [C57U G80A]: the “polymerase ribozyme fitness (log ratio)” value is -0.314.
As for GGAUCUUCUCGAUCUAACAAAAAAGACAAAUCUGCCACAAAGCUUGAGAGCAUCUUUGGAUGCAGAGGCGGCAGCCUUCGGUGGUGUGAUAGCGCCAACGUUCUCAACUAUGACACGCAAAACGCGUGCUCCGUUGAAUGGAGGUUAUCAUG [C57U C85U C87U U144G], the “polymerase ribozyme fitness (log ratio)” value was -0.0249.
As to GGAUCUUCUCGAUCUAACAAAAAAGACAAAUCUGCCACAAAGCUUGAGAGCAUCUUUGGAUGCAGGGGCGGCAGCCUUCGGUGGCGCGAUAGCGCCAACGUUCUCAACUAUGACACGCAAAACGCGUGCUCCGUUGAAUGGAGUUUAUCAUG [C57U A66G], the “polymerase ribozyme fitness (log ratio)” value is -3.4.
In the case of GGAUCUUCUCGAUCUAACAAAAAAGACAAAUCUGCCACAAAGCUUGAGAGCAUCUUUGGAUGCAGAGGAGGCAGCCUUCGGUGUCGCGAUAGCGCCAACGUUCUCAACUAUGACACGCAACACGCGUGCUCCGUUGAAUGGAGUUUAUCAUG [C57U C69A G84U A121C], the “polymerase ribozyme fitness (log ratio)” value was -2.25.
The result for GGAUCUUCUCGAUCUAACAAAAAAGACAAAUCUGCCACAAAGCUUGAGAGCAUCUUUGGAUGCAGAGGCGGCAGCCUUCGGUGGCGCGAUAGCGACAACGUUCUCAACGAUGACACGCAAAACGCGUGCUCCGUUGAAUGGAGUUUAUCAUG [C57U C95A U109G] reads -0.696.
